The results in this text go back to patent US20230235304.

Residue numbers refer to the chain shown, from its start.

Common to all, as to assay: cell_activity
What all share (conditions): PAM 5'-GCTG-3'; HEK293T; averaged over AAVS1, VEGFA, EMX1 targets

The subject of series [1] is T1, CRISPR nuclease variant D535G,L516R,I521R D535G,L516R,I521R (synthetic construct).
T1 sequence: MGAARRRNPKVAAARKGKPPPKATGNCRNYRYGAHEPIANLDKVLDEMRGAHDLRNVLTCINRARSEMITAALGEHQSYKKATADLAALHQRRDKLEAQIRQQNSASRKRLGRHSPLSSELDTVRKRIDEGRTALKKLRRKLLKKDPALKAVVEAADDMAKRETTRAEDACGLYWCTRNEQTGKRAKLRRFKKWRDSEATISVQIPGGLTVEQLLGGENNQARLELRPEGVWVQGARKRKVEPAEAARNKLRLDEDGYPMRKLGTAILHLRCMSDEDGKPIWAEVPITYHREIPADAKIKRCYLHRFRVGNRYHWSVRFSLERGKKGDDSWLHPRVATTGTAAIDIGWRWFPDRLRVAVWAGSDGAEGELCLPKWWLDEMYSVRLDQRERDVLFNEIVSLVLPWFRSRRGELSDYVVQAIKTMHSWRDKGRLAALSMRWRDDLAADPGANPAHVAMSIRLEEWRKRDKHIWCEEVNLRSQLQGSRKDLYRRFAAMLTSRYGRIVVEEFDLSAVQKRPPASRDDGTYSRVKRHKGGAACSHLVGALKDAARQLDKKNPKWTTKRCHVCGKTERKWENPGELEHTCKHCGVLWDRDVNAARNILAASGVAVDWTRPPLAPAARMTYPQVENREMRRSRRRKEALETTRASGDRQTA

The subject of series [2] is T2, CRISPR nuclease variant D509R D509R (synthetic construct).
T2 sequence: T1 sequence with D509R, R516L, R521I, G535D

Series [3] relates to T3, CRISPR nuclease variant S511R S511R (synthetic construct).
T3 sequence: T1 sequence with S511R, R516L, R521I, G535D

The subject of series [4] is T4, CRISPR nuclease variant K136G,N220R,M380R K136G,N220R,M380R (synthetic construct).
T4 sequence: T1 sequence with K136G, N220R, M380R, R516L, R521I, G535D

With “GGUCCCAUCGGAACGGGUUGUGGUUCCGACGGAGGGAUACAUUGGUGGGG / GGAGGGATACATTGGTGGGG / CCCCACCAATGTATCCCTCC [AAVS1 crRNA (Table 5) ; AAVS1 target (Table 5)]”, the binding signal (fold indels vs WT) in series [1] worked out at 3.59; in series [2], 3.91; in series [3] it was 3.71; in series [4], 4.54.
